Patent US7723111

Molecular target: folate binding protein (FBP) (UniProt P15328)
Experiment: cell-based or functional assay

Chain of UniProt P15328 (P15328 25-234 limits assumed): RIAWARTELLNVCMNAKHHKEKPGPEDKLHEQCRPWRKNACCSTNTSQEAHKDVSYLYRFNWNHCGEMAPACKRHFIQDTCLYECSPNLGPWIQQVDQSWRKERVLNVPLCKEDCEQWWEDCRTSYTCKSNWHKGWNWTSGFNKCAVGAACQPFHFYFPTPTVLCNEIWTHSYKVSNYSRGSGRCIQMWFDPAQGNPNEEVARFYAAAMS

- IFN-γ secretion (pg/ml) of MOv-γ transduced mouse T cells in response to 24JK-FBP cells (parental 24JK: 0; non-transduced T cells: 0): 5200 pg/mL
- IFN-γ secretion (pg/ml) of MOv-γ transduced mouse T cells in response to IGROV (ovarian FBP +) cells (non-transduced T cells: 0): 37500 pg/mL
- share of MOv-γ transduced human T cell clones (patient 410) reactive against the ovarian cancer target: 67 % of clones
Substance: MOv-γ chimeric receptor
